# Numbering of substitutions follows the chain as printed. In names and notes the source's numbering stands.
# B1: anti-CD20 (rituximab) human IgG1 L234A/L235A/K322A (antibody)
# heavy: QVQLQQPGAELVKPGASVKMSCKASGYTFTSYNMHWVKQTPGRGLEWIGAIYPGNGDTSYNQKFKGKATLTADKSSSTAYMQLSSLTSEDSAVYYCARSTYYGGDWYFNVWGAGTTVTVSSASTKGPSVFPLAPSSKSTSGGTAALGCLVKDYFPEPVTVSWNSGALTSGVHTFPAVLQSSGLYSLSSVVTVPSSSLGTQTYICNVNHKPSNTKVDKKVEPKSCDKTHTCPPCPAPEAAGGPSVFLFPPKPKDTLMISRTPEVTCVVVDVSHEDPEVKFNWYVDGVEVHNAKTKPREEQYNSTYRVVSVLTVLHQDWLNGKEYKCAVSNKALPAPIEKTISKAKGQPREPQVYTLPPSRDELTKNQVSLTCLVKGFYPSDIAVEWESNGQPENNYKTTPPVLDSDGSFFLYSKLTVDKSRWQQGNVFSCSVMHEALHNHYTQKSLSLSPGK
# light: QIVLSQSPAILSASPGEKVTMTCRASSSVSYIHWFQQKPGSSPKPWIYATSNLASGVPVRFSGSGSGTSYSLTISRVEAEDAATYYCQQWTSNPPTFGGGTKLEIKRTVAAPSVFIFPPSDEQLKSGTASVVCLLNNFYPREAKVQWKVDNALQSGNSQESVTEQDSKDSTYSLSSTLTLSKADYEKHKVYACEVTHQGLSSPVTKSFNRGEC
# notes: EU numbering; also called 2-74; copies: 2 + 2
# B2: anti-CD20 (rituximab) human IgG1 L234K/L235V/G236R (antibody)
# heavy: QVQLQQPGAELVKPGASVKMSCKASGYTFTSYNMHWVKQTPGRGLEWIGAIYPGNGDTSYNQKFKGKATLTADKSSSTAYMQLSSLTSEDSAVYYCARSTYYGGDWYFNVWGAGTTVTVSSASTKGPSVFPLAPSSKSTSGGTAALGCLVKDYFPEPVTVSWNSGALTSGVHTFPAVLQSSGLYSLSSVVTVPSSSLGTQTYICNVNHKPSNTKVDKKVEPKSCDKTHTCPPCPAPEKVRGPSVFLFPPKPKDTLMISRTPEVTCVVVDVSHEDPEVKFNWYVDGVEVHNAKTKPREEQYNSTYRVVSVLTVLHQDWLNGKEYKCKVSNKALPAPIEKTISKAKGQPREPQVYTLPPSRDELTKNQVSLTCLVKGFYPSDIAVEWESNGQPENNYKTTPPVLDSDGSFFLYSKLTVDKSRWQQGNVFSCSVMHEALHNHYTQKSLSLSPGK
# light: B1 light
# notes: EU numbering; also called 2-26; 1-91; copies: 2 + 2
# B3: anti-CD20 (rituximab) human IgG1 L234R/L235E/G236R (antibody)
# heavy: B2 heavy with K238R, V239E
# light: B1 light
# notes: EU numbering; also called 2-37; copies: 2 + 2
# B4: anti-CD20 (rituximab) human IgG1 L234F/L235E/P331S (antibody)
# heavy: B2 heavy with K238F, V239E, R240G, P335S
# light: B1 light
# notes: EU numbering; also called 2-75; copies: 2 + 2
# B5: anti-CD20 (rituximab) human IgG1 L234Q/L235T/G236R (antibody)
# heavy: B2 heavy with K238Q, V239T
# light: B1 light
# notes: EU numbering; also called 1-120; copies: 2 + 2
# B6: anti-CD20 (rituximab) human IgG1 L234Q/L235V/G236R (antibody)
# heavy: B2 heavy with K238Q
# light: B1 light
# notes: EU numbering; copies: 2 + 2
# B7: anti-CD20 (rituximab) human IgG1 L234D/L235K/G236R (antibody)
# heavy: B2 heavy with K238D, V239K
# light: B1 light
# notes: EU numbering; also called 2-7; 1-23; copies: 2 + 2
# B8: anti-CD20 (rituximab) human IgG1 L234R/L235D/G236R (antibody)
# heavy: B2 heavy with K238R, V239D
# light: B1 light
# notes: EU numbering; copies: 2 + 2
# B9: anti-CD20 (rituximab) human IgG1 L234K/L235S/G236R (antibody)
# heavy: B2 heavy with V239S
# light: B1 light
# notes: EU numbering; also called 2-24; 1-89; copies: 2 + 2
# B10: anti-CD20 (rituximab) human IgG1 L234K/L235R/G236R (antibody)
# heavy: B2 heavy with V239R
# light: B1 light
# notes: EU numbering; also called 2-23; 1-88; copies: 2 + 2
# B11: anti-CD20 (rituximab) human IgG1 L234T/L235K/G236R (antibody)
# heavy: B2 heavy with K238T, V239K
# light: B1 light
# notes: EU numbering; also called 2-58; copies: 2 + 2
# B12: anti-CD20 human IgG1 L234S/L235I/G236R (antibody)
# heavy: B2 heavy with K238S, V239I
# light: B1 light
# notes: also called 2-49
# B13: anti-CD20 human IgG1 L234T/L235I/G236R (antibody)
# heavy: B2 heavy with K238T, V239I
# light: B1 light
# notes: also called 2-57; 1-157
# B14: anti-CD20 human IgG1 L234T/L235A/G236R (antibody)
# heavy: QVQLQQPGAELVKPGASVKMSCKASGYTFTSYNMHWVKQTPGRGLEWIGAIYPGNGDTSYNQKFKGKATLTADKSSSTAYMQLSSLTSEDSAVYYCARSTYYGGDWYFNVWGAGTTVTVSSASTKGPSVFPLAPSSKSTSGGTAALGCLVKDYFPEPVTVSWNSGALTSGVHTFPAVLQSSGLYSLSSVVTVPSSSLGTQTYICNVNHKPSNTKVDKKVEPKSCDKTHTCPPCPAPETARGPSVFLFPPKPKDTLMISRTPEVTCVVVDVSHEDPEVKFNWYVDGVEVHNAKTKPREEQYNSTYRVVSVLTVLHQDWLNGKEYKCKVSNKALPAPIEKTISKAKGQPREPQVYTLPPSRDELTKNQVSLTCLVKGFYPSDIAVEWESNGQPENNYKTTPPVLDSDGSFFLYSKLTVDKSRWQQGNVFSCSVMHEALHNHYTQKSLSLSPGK
# light: B1 light
# notes: also called 2-54; 1-152
# B15: anti-CD20 human IgG1 L234T/L235D/G236R (antibody)
# heavy: B2 heavy with K238T, V239D
# light: B1 light
# notes: also called 2-55
# B16: anti-CD20 (rituximab) human IgG1 L234S/L235H/G236R (antibody)
# heavy: B2 heavy with K238S, V239H
# light: B1 light
# notes: EU numbering; also called 2-48; copies: 2 + 2
# B17: anti-CD20 (rituximab) human IgG1 L234R/L235K/G236R (antibody)
# heavy: B2 heavy with K238R, V239K
# light: B1 light
# notes: EU numbering; also called 2-40; copies: 2 + 2
# B18: anti-CD20 (rituximab) human IgG1 L234S/L235R/G236R (antibody)
# heavy: B2 heavy with K238S, V239R
# light: B1 light
# notes: EU numbering; also called 2-51; copies: 2 + 2
# B19: anti-CD20 (rituximab) human IgG1 L234T/L235R/G236R (antibody)
# heavy: B2 heavy with K238T, V239R
# light: B1 light
# notes: EU numbering; also called 2-61; copies: 2 + 2
# B20: anti-CD20 (rituximab) human IgG1 L234R/L235I/G236R (antibody)
# heavy: B2 heavy with K238R, V239I
# light: B1 light
# notes: EU numbering; also called 2-39; copies: 2 + 2
# B21: anti-CD20 (rituximab) human IgG1 L234R/L235H/G236R (antibody)
# heavy: B2 heavy with K238R, V239H
# light: B1 light
# notes: EU numbering; also called 2-38; copies: 2 + 2
# Molecular target: T1, human FcRn (R&D Systems Cat. No. 8639-Fc) (human, UniProt P55899 24-297; P61769 21-119)
# Assay: SPR, FcRn captured; Mean
# Method: (§1) Binding to human FcRn was measured twice. As before the binding responses were corrected by subtraction of the response given by a blank sample consisting of running buffer alone.
# (§2) Further experiments were carried out to test a larger panel of variants for binding to human FcRn. Because of the comparatively large number of samples, it was necessary to correct for the effects of baseline drift and loss of binding capacity during the runs which required repeated regeneration of the Biacore® chip. A baseline correction was calculated by interpolating the response of two blank samples, one at the beginning and one at the end of the run, to determine an individual baseline correction for each cycle which was subtracted from the response of the sample run in that cycle.
row,Corrected and normalised response (% of wild-type reference),Binder
1,94 % of wild-type reference,B1
2,101 % of wild-type reference,B2
3,98.4 % of wild-type reference,B3
4,96.5 % of wild-type reference,B4
5,95.3 % of wild-type reference,B5
6,97.1 % of wild-type reference,B6
7,94.3 % of wild-type reference,B7
8,95.6 % of wild-type reference,B8
9,100 % of wild-type reference,B9
10,100 % of wild-type reference,B10
11,100 % of wild-type reference,B11

# Molecular target: T1, human FcRn (R&D Systems Cat. No. …)
# Assay: SPR, FcRn captured; Expt 1
# Method: as §1, §2
row,Corrected and normalised response (% of wild-type reference),Binder
1,94 % of wild-type reference,B1
2,101 % of wild-type reference,B2
3,99 % of wild-type reference,B3
4,96.1 % of wild-type reference,B4
5,95.6 % of wild-type reference,B5
6,97.3 % of wild-type reference,B6
7,94.9 % of wild-type reference,B7
8,95.5 % of wild-type reference,B8
9,100 % of wild-type reference,B9
10,101 % of wild-type reference,B10
11,99.2 % of wild-type reference,B11

# Molecular target: T1, human FcRn (R&D Systems Cat. No. …)
# Assay: SPR, FcRn captured; Expt 2
row,Corrected and normalised response (% of wild-type reference),Binder
1,94.7 % of wild-type reference,B1
2,100 % of wild-type reference,B2
3,98.6 % of wild-type reference,B3
4,97.1 % of wild-type reference,B4
5,95.1 % of wild-type reference,B5
6,96.6 % of wild-type reference,B6
7,93.7 % of wild-type reference,B7
8,95.4 % of wild-type reference,B8
9,99.7 % of wild-type reference,B9
10,99.6 % of wild-type reference,B10
11,100 % of wild-type reference,B11

# Molecular target: T1, human FcRn (R&D Systems Cat. No. …)
# Assay: SPR, FcRn captured; Expt 3
# Method: as §1, §2
row,Corrected and normalised response (% of wild-type reference),Binder
1,93.3 % of wild-type reference,B1
2,100 % of wild-type reference,B2
3,97.8 % of wild-type reference,B3
4,96.3 % of wild-type reference,B4
5,95.2 % of wild-type reference,B5
6,97.4 % of wild-type reference,B6
7,94.1 % of wild-type reference,B7
8,96 % of wild-type reference,B8
9,100 % of wild-type reference,B9
10,99.5 % of wild-type reference,B10
11,100 % of wild-type reference,B11

# Molecular target: T2, Histidine-tagged recombinant human FcγRI (CD64) (human, UniProt P12314 16-288, limits assumed)
# T2 construct: bought
# Assay: SPR, His-FcγRI captured; mean;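 also: biacore T200 SPR at 25 °C, anti-His surface capturing FcγRI, Fc-variant antibodies injected at 100 µg/mL for 1 min, signal near injection end minus third buffer blank, three repeats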
row,"Corrected response (RU), Mean",Binder
1,4.8 RU,B12
2,16.2 RU,B13
3,5.4 RU,B14
4,32.4 RU,B15

# Molecular target: T2, Histidine-tagged recombinant human …
# Assay: SPR, His-FcγRI captured; Expt 1;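 also: SPR at 25 °C on anti-His antibody chip capturing FcγRI, Fc-variant antibodies injected at 100 µg/mL for 1 min, signal near end of injection minus buffer blank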
# Method: (§3) Binding analysis was carried out by surface plasmon resonance at 25° C. using a Biacore® T200 instrument with Biacore® T200 control software. The sample compartment was held at 5° C. The running buffer (HBS-EP+) consisted of 0.01 M HEPES pH 7.4, containing 0.15 M NaCl, 3 mM EDTA, and 0.05% v/v Surfactant P20. Methods were run using the manufacturer's standard method wizards as described in the Biacore® T200 Instrument Handbook.
# (§4) The cell was activated by treatment with EDC/NHS for 7 min. The antibody was diluted to 10 μg/mL in 10 mM sodium acetate pH 5.0 and injected for 7 min at 5 μL/min. The flow cell was deactivated by injection of 1M ethanolamine for 7 min. This process was repeated in the absence of anti-his antibody on a separate flow cell to generate a reference surface. […] Samples of purified antibodies comprising variant Fc regions (1 mg/mL in PBS) were diluted with running buffer to 100 μg/mL and were injected for 1 min at 30 μL/min and allowed to disassociate for 2 min. Between each cycle, the chip was regenerated by injection of 10 mM glycine pH 3.0 for 0.5 min at a flow rate of 30 μL/min and recharged with a fresh injection of FcγRI. At the beginning of each experiment, three blank cycles were run, with buffer alone being injected instead of test sample. The average SPR signal (relative to the reference cell) was measured in a window approximately 8 to 13 seconds before the injection of test sample (baseline) and approximately 3 to 8 seconds before the end of injection (response). The response of the third of the blank (buffer) samples was subtracted from the response of each test sample in order to allow for any dissociation of the bound FcγRI giving a corrected response for each test sample. The whole experiment was repeated three times with the test samples being analysed in different orders each time.
row,Corrected response (RU),Binder
1,3.9 RU,B12
2,7.2 RU,B13
3,4.3 RU,B14
4,6 RU,B15

# Molecular target: T2, Histidine-tagged recombinant human …
# Assay: SPR, His-FcγRI captured; Expt 2;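 also: biacore T200 SPR at 25 °C, Fc-variant antibodies at 100 µg/mL flowed 1 min over anti-His-captured receptor, signal read near injection end minus third buffer blank; antibody analyte injected at 100 µg/mL for 1 min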
# Method: as §3, §4
row,Corrected response (RU),Binder
1,4.2 RU,B12
2,17.3 RU,B13
3,4.8 RU,B14
4,28.9 RU,B15

# Molecular target: T2, Histidine-tagged recombinant human …
# Assay: SPR, His-FcγRI captured; Expt 3;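 also: biacore T200 SPR at 25 °C, Fc-variant antibodies at 100 µg/mL flowed 1 min over anti-His-captured FcγRI, signal taken just before injection end minus a buffer blank cycle; antibody analyte injected at 100 µg/mL for 1 min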
# Method: as §3, §4
row,Corrected response (RU),Binder
1,6.4 RU,B12
2,24.2 RU,B13
3,7.2 RU,B14
4,62.3 RU,B15

# Molecular target: T3, Human C1q (Sigma Cat. No. 20476), HRP-labelled (human, UniProt P02745 23-245; P02746 28-253; P02747 29-245)
# T3 construct: Coupled to horse-radish peroxidase with Lightning-Link kit; also called HRP-labelled C1q
# Assay: ELISA, antibody coated, HRP-C1q; Expt 1, buffer alone 0.061
# Method: Binding analysis was carried out by ELISA. All steps were carried out at room temperature (18 to 22° C.). Samples of purified antibodies comprising variant Fc regions were diluted to 10 μg/mL in PBS. Negative controls consisted of PBS alone. Replicates of 100 μL each were added to two 96-well clear Maxisorp microplates (Sigma Cat. No. M9410-ICS) and incubated with shaking for approximately 60 min. The plates were rinsed with PBS containing 0.05% (v/v) Tween 20 (wash buffer) and 200 μL block buffer was added. The plates were incubated with shaking for approximately 60 min and optionally stored overnight at 4° C., then rinsed with wash buffer. HRP-labelled C1q was diluted to 100 ng/mL in block buffer and 100 μL was added to each well. The plates were incubated with shaking for approximately 90 min then washed four times with wash buffer and twice with water. 100 μL of 3,3′,5,5′-tetramethylbenzidine liquid substrate, supersensitive (TMB) (Sigma Cat. No. T4444) was added and the plates were incubated with shaking for approximately 10 min. 50 μL of 1M sulphuric acid was added to stop the reaction and the absorbance was read at 450 nm with 620 nm subtraction using a microplate spectrophotometer (Anthos Labtec HT). The whole experiment was repeated three times using different selections of variant antibodies. In experiments 1 and 2, six replicates of each sample were tested (three on each plate) and in experiment 3, twelve replicates (six on each plate). Within each experiment, the mean absorbance for each sample was compared with the mean absorbance obtained with buffer alone using a one-tailed t-test, assuming unequal variances. The mean of the resulting probability (P) values was calculated.
row,Mean Absorbance,Binder
1,0.073 absorbance (450 nm),B2
2,0.048 absorbance (450 nm),B3
3,0.04 absorbance (450 nm),B16
4,0.055 absorbance (450 nm),B17
5,0.037 absorbance (450 nm),B18
6,0.032 absorbance (450 nm),B6
7,0.049 absorbance (450 nm),B7
8,0.038 absorbance (450 nm),B8
9,0.047 absorbance (450 nm),B19
10,0.059 absorbance (450 nm),B10
11,0.126 absorbance (450 nm),B11
12,0.169 absorbance (450 nm),B20
13,0.062 absorbance (450 nm),B21

# From US20230235013A1 (MABSOLVE, published 2023)
